Patent EP2388325A1 (RLP AgroScience GmbH, dated 2011)

Assays:
[1] = target: MBP:HA-HC-Pro fusion protein (ZYMV HC-Pro fused to the C-terminus of maltose binding protein, HA-tag between … (zucchini yellow mosaic virus (ZYMV), UniProt P0AEX9 27-396 = MBP)); assay: cell-based or functional assay
[2] = target: the molecule itself; assay: Western blot / Coomassie gel after Ni-NTA purification (self-association)

B1: Trx-cupin-protein-His-protein (A. thaliana cupin protein expressed from pET32a(+)) (other)
chain: MGCIGVVNVTSINPYLTRRSNKPYNSRRPSSMAAAIRAESTEKLGITIEKNPPESKLTQLGVRSWPKWGCPPSKFPWTYSAKETCYLLQGKVKVYPNGSDEGVEIEAGDFVVFPKGMSCTWDVSVAVDKHYQFE
notes: Expressed in BL21 (DE3) codon plus, purified by the His-tag; 34 kDa monomer; also called Tm-cupin-protein-His-protein; Trx-QP-His-protein; not shown: N-terminal pET32a(+) tags: thioredoxin (Trx-tag), 6 X His-tag, S-Tag, enterokinase site; C-terminal 6 X His-tag from pET32a(+)
For B1, the “gelshift (EMSA): binding of 21 bp siRNA-double strands by MBP-HA-HC-Pro, signal intensities (Quantity One)” value [1] was 3 fold and the binding result [2] was “binds”.
